From US20180064666A1 (BETH ISRAEL DEACONESS MEDICAL CENTER, published 2018)

Assays:
[1] = target: T1, Erk2 (endogenous, member of Erk1/2) (human (endogenous in human cell lines), UniProt P28482 2-360); experiment: reciprocal co-IP from HMLE lysates, western blot (FIG. 45C)
T1 construct: one entry is written for each member; also called total Erk1/2

[2] = target: T2, Erk1 (endogenous, member of Erk1/2) (human (endogenous in human cell lines), UniProt P27361 2-379); experiment: as above
T2 construct: one entry is written for each member; also called total Erk1/2
T2 sequence (P27361 2-379 limits assumed): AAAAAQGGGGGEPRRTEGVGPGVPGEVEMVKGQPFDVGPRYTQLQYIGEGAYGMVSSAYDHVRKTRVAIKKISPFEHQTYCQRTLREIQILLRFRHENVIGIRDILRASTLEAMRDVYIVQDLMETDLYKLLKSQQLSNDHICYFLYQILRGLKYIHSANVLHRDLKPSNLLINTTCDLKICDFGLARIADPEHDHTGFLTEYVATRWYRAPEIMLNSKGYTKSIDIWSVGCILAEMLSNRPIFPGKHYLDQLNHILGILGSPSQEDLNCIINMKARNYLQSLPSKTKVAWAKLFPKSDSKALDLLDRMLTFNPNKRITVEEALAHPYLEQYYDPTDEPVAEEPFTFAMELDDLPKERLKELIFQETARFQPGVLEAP

[3] = target: p-Erk1 (phosphorylated Erk1, member of p-Erk1/2) (human (endogenous in human cell lines), UniProt P27361 2-379, phosphorylated (p-Erk1/2, induced by constitutively active MEK1); sites not given); experiment: co-IP from HEK293 cells (FIG. 45D)
Chain of p-Erk1 (phosphorylated Erk1, member of p-Erk1/2) (P27361 2-379 limits assumed): as above

[4] = target: p-Erk2 (phosphorylated Erk2, member of p-Erk1/2) (human (endogenous in human cell lines), UniProt P28482 2-360, phosphorylated (p-Erk1/2, induced by constitutively active MEK1); sites not given); experiment: co-IP from HEK293 cells (FIG. 45D)
Chain of p-Erk2 (phosphorylated Erk2, member of p-Erk1/2) (P28482 2-360 limits assumed): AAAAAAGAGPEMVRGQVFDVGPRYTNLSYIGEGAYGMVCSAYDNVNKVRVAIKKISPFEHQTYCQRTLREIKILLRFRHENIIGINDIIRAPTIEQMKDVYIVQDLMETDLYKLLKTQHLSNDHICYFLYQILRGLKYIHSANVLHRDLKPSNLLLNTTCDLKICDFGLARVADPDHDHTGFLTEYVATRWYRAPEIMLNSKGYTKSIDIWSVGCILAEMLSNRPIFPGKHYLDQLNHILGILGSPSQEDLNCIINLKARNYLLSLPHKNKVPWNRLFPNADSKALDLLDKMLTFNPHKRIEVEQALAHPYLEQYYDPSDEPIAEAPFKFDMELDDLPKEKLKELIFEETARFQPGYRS

[5] = target: T1, Erk2 (endogenous, member of Erk1/2); experiment: co-IP from HEK293 cells (FIG. 45D)
[6] = target: T2, Erk1 (endogenous, member of Erk1/2); experiment: co-IP from HEK293 cells (FIG. 45D)

Measured: binding result

T1 sequence (P28482 2-360 limits assumed): as above

B1: endogenous Rab2A (enzyme, human (endogenous in human HMLE cells), UniProt P61019 2-212, looked up)
chain: AYAYLFKYIIIGDTGVGKSCLLLQFTDKRFQPVHDLTIGVEFGARMITIDGKQIKLQIWDTAGQESFRSITRSYYRGAAGALLVYDITRRDTFNHLTTWLEDARQHSNSNMVIMLIGNKSDLESRREVKKEEGEAFAREHGLIFMETSAKTASNVEEAFINTAKEIYEKIQEGVFDINNEANGIKIGPQHAATNATHAGNQGGQQAGGGCC
binds: [1] | [2]

B2: Flag-Rab2A (enzyme, UniProt P61019 1-212, looked up, not shown: small tags and cut ends)
chain: MAYAYLFKYIIIGDTGVGKSCLLLQFTDKRFQPVHDLTIGVEFGARMITIDGKQIKLQIWDTAGQESFRSITRSYYRGAAGALLVYDITRRDTFNHLTTWLEDARQHSNSNMVIMLIGNKSDLESRREVKKEEGEAFAREHGLIFMETSAKTASNVEEAFINTAKEIYEKIQEGVFDINNEANGIKIGPQHAATNATHAGNQGGQQAGGGCC
notes: also called wild-type Rab2A
binds: [3] | [4] | [5] | [6]
